Molecular target: SARS-COV-2 RBD extracellular domain expressed with a C-terminal myc-myc-hexahistidine tag (SARS-CoV-2)
Assay: SPR (Biacore), mAb captured by anti-human Fc, RBD-mmH in solution, 25 C

Row | Binder | Kd | koff | kon | t½
1 | mAb14256 (antibody, V domains shown) VH: QVQLQESGPGLVKPSETLSLTCTVSGGSISSHYWSWIRQPPGKGLEWIGYIYYSGSSNYNPSLKSRVTISVDTSKNQFSLKLNSVTAADTAVYYCARHYDILTGFDWFDPWGQGTLVTVSS VL: QSVLTQPPSVSGAPGQRVTISCTGSSSNIGTHYDVHWYQQLPGTAPKLLIYGNSNRPSGVPDRFSGSKSGTSASLAITGLQAEDEADYYCQSFDNSLTAPYVFGTGTKVTVLG | 8.32 nM | 0.00927 s⁻¹ | 1.11e+06 M⁻¹ s⁻¹ | 1.2 min
2 | mAb15156 (antibody, V domains shown) VH: QLQLQESGPGLVKSSETLSLTCTVSASITGSTYYWGWIRQPPGKGLEWIGSIYYSGTTYYKASLKSRVTISVDTSKNQFSLKLTSVTVADTAVYYCVSHLLGNYHKYGMDVWGQGTTVTVSS VL: not shown | 4.18 nM | 0.00121 s⁻¹ | 289000 M⁻¹ s⁻¹ | 9.6 min
3 | mAb14285 (antibody, V domains shown) VH: QVQLVQSGAEVKKPGASVKVSCKASGYTFTGYFIHWVRQAPGQGLEWMGWISPISGGTNYAQKFQGRVTVTRDTSITTAYMELSRLTSDDTAVYHCAREGGTWKGDFDYWGQGTLVTVSS VL: QSALTQPASVSGSPGQSITISCTGTSSDVESYNLVSWYQQHPGKAPKLMIYEGSKRPSGVSNRFSGSKSGNTASLTISGLQAEDEADYYCSSYAGSSTWVFGGGTKLTVLG | 11.7 nM | 0.0211 s⁻¹ | 1.8e+06 M⁻¹ s⁻¹ | 0.5 min
4 | mAb14230 (antibody, V domains shown) VH: EVQLVESGGGLIQPGRSLRLSCAASGFTFDDYAMHWVRQAPGKGLEWVSGISWNSVSIDYADSVKGRFTISRDNAKNSLYLQMTSLTVEDTALYYCAKAFGYETLTGSDYFAYWGPGTLVTVSS VL: EIVLTQSPGTLSLSPGERATLSCRASQTVISTYLAWYQQKPGQSPRLLIYGASSRATGIPDRFSGSGSGTDFTLTISRLEPEDFAVYYCQQYGSSPQLTFGGGTKVEIKR | 7.51 nM | 0.00852 s⁻¹ | 1.13e+06 M⁻¹ s⁻¹ | 1.4 min
5 | mAb14292 (antibody, V domains shown) VH: EVQLVESGGGLVQPGGSLRLSCVASGFAFSTYEMNWVRQAPGKGLEWVSYISSSGSTIYYADSVKGRLTISRDNVKNSLYLQMNSLRVEDTAIYYCARDAIRNNDILTDPATFDPWGQGTLVTVSS VL: not shown | 40.9 nM | 0.0171 s⁻¹ | 417000 M⁻¹ s⁻¹ | 0.7 min
6 | mAb14280 (antibody, V domains shown) VH: QVQLVQSGAEVKKPGASVRVSCKASGYTFTGNYIHWVRQAPGQGLEWMAWINPNSGGKNYAQKFQGRVTLTRDTSVNTAYMELSRLRSDDTAMYYCARDVNYNILTGPGGLWGQGTLVTVSS VL: QSALTQPPSASGSPGQSVTISCTGTSSDVGGYNFVSWYQQHPGKAPKLMIYEVSKRPSGVPDRFSGSKSGNTASLTVSGLQAEDEADYYCSSYAGSNNFVFGTGTKVTVLG | 15.4 nM | 0.0255 s⁻¹ | 1.66e+06 M⁻¹ s⁻¹ | 0.5 min
7 | mAb14281 (antibody, V domains shown) VH: QVQLVQSGADVKKPGASVKVSCKTSGYIFTGYYIHWVRQAPGQGLEWMGWINPNSGGTNSAQKFQGRVTMTRDTSISTVYMELSRLRSDDTAVYYCAKSNSFSVLDYNFDYWGQGTLVTVSS VL: SSELTQDPAVSVALGQTVRITCQGDSLRSYYASWYQQKPGQAPVLVIYDKNNRPSGIPDRFSGSSSGNTASLTITGAQAEDEADYYCNSRDSSRNHLVVFGGGTKLTVLG | 5.02 nM | 0.00554 s⁻¹ | 1.1e+06 M⁻¹ s⁻¹ | 2.1 min
8 | mAb14234 (antibody, V domains shown) VH: QVQLVESGGGVVQPGRSLRLSCAASGFTFSSYGIHWVRQAPGKGLEWVAIIWYDGSEKYYADSVKGRFTISRDNSKNTLFLQMNSLEAEDTAVYYCARGPDLLTGYYNYFYYGMDVWGQGTTVTVSS VL: QSVLTQPPSVSGAPGQRVTISCTGSSSNIGIGYDVHWYQQLPGTVPKLLIYGNTNRPSGVPDRFSGSKSGTSASLAITGLQAEDEADYYCQSYDSSLSSYVFGTGTKVTVLG | 20.5 nM | 0.0113 s⁻¹ | 550000 M⁻¹ s⁻¹ | 1 min

Source: patent US20260069689A1 (Regeneron, published 2026)
